Source: the RNAGym collection of RNA variant scans (doi:10.1073/pnas.2313332121)
Variants at the floor of the assay were thinned out.

B1: TPR 5TU (parent)
chain: GGAUCUUCUCGAUCUAACAAAAAAGACAAAUCUGCCACAAAGCUUGAGAGCAUCUUCGGAUGCAGAGGCGGCAGCCUUCGGUGGCGCGAUAGCGCCAACGUUCUCAACUAUGACACGCAAAACGCGUGCUCCGUUGAAUGGAGUUUAUCAUG

Variants of: B1
Test: polymerase ribozyme fitness, log enrichment relative to wild type (log ratio); higher = more active; in vitro selection for triplet polymerase activity
In short: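 Mutant libraries of both subunits of a heterodimeric triplet polymerase ribozyme were PCR-built, transcribed, and selected once in triplicate, with frozen incubation at −7 °C and capture of gel-excised extended constructs on streptavidin beads before RT-PCR. Illumina sequencing of input and output libraries was filtered to genotypes with ≥10 input reads and ≥1 read per output. Fitness is the logarithm of genotype enrichment over wild-type enrichment, using inverse-variance-weighted replicate averages. The logarithm is base 2.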

Variant	polymerase ribozyme fitness (log ratio)
C76U U144A	-1.08
G83C G117A	0.556
G81U G92C C116A G133C	-3.35
G81C G92A	-3.5
C76A C96U A121C	0.584
G83C G128A	-3.88
C75G A106C C108A	≤ -4.2
U82C A89U	-0.15
G83A A106G A119C	-0.0979
A73U U82A C95U	-1.04
G81C G84U	-2.44
G80A C99G	-1.02
C76G G94U C96G U111A	≤ -4.2
G81A G86A C99G	-1.98
G80U A91C A106U C132G	≤ -4.2
U77G A89C U104C	≤ -4.2
C76U C85G	-0.632
C76U C85A	-2.44
C75G U78G A115G	≤ -4.2
C76A C85A A121G	-2.03
G83C G88C	≤ -4.2

Variant	polymerase ribozyme fitness (log ratio)
G83U A89G C103A C108G U134C A142C	≤ -4.2
C76A A107G C123U A142C	-3.65
G80U A91G A110G	≤ -4.2
G81A C95U	-1.88
C76U U78C A106C	-1.92
U82A A113C G117U G141C	≤ -4.2
G83A G92U C118G	-1.41
G83C C132U A142U	≤ -4.2
G83C G94A A98U C125U	-1.82
G81C G83U G133A	-3.88
C76U U139G	-0.649
U82A G126A G133C	-1.01
C76G G83A U139A U146C U148C	≤ -4.2
G83C C99A G133A	-4.12
C76U C93G G124A C132A	≤ -4.2
G81A C85G	-1.86
G83C A97G C108G	≤ -4.2
G83C U148A	-3.1
U77A C95U	≤ -4.2
G80A C99G U127C	-2.19
U77C C95U G141A	≤ -4.2

Variant	polymerase ribozyme fitness (log ratio)
G83U A89C	-0.953
G83A G88A A91G G112U G140U G143C	≤ -4.2
U78G G88U	≤ -4.2
G83C A113C	-3.35
C79G U134C U146C	-4.11
G81A G86C A89U C125U C131U A137G	-4.06
C75U G141C	-1.98
C76A G136A	0.971
U77G G92U	-3.92
G74C G83A C95U G136A	≤ -4.2
A73U G84U G152A	-3.83
C75G C96A	-3.52
C75G C96U	-3.61
U82C A115G	-0.965
C76G C96A G140A	≤ -4.2
C75G C87A	-3.89
A73U C85A A147C	-2.75
C76A C85G C87U G141C A142C	≤ -4.2
C75U G83C	-1.13
A73U C75G U78A A89G C93G C95A U146G	≤ -4.2
C76U U101A	-1.35

Variant	polymerase ribozyme fitness (log ratio)
C76U C96A	0.322
U78G C99G C103A U109G	≤ -4.2
C76G C85G G92A A120C C129U	≤ -4.2
U82A C93U U145G	-2.53
U78G C96U A107U G141C A150G	≤ -4.2
G83A C95A A113U	-3.12
A73U G84A C108G G141A U145C	≤ -4.2
C76A C85A G143U	≤ -4.2
C76A C85G	-3.53
G80A C85G	-1.38
C75G C76U A97U G141C	≤ -4.2
G83C A150G	-2.66
C76A U90C U146G	≤ -4.2
G74A G92C	-2.84
C76U G83C C118U	-0.363
C75U G84U C99U A115C	-3.35
C76A A89C	-0.238
G81U C85G A89C C93G	≤ -4.2
G81U C87A A107G U144G	≤ -4.2
U77G G84A	≤ -4.2
C76A C87U G92C	-2.48
